T1: His-MYB88 (UniProt F4IRB4 1-484)
T1 sequence: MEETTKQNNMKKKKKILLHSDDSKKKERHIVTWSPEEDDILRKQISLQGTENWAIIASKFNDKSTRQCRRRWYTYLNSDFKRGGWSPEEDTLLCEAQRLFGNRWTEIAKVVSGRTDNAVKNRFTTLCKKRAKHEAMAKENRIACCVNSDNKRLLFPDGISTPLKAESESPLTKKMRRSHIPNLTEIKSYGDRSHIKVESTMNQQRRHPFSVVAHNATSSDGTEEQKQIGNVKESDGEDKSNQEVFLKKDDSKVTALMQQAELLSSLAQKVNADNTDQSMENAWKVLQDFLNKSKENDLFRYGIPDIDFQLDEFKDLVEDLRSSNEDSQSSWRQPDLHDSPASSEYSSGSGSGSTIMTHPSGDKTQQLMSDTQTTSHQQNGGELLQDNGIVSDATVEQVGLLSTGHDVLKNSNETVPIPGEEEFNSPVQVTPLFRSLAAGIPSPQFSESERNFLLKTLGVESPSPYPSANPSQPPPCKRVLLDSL

T2: His-FLP (FOUR LIPS, MYB124) (UniProt Q94FL6 1-436)
T2 sequence: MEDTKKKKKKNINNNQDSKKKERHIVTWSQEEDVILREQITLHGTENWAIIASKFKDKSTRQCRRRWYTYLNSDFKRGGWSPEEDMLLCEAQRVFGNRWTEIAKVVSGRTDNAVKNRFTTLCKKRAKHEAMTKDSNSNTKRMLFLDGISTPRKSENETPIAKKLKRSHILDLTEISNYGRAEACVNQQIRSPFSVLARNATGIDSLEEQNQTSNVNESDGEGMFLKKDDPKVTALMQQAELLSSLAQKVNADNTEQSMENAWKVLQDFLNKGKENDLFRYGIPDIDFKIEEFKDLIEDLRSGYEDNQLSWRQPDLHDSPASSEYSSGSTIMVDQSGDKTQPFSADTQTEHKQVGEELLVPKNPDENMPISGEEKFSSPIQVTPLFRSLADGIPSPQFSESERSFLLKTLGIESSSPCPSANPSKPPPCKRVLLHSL

B1: Probe-1386 (neighbour element -1392 replaced with A) (dsDNA)
DNA 1: AATGTGTAATTGTCAAGAGGGATAAAAAAACGCGGATGAATCGAAGAAGCAATTGCTTT
DNA 2: AAAGCAATTGCTTCTTCGATTCATCCGCGTTTTTTTATCCCTCTTGACAATTACACATT
B2: Probe-902 (dsDNA)
DNA 1: TATTTAACTATTGCTTTTTTGATTATTAGCCGGGGTACCAAGATATTAGTTTTTAATTT
DNA 2: AAATTAAAAACTAATATCTTGGTACCCCGGCTAATAATCAAAAAAGCAATAGTTAAATA
B3: Probe-1392 (neighbour element -1386 replaced with A) (dsDNA)
DNA 1: AATGTGTAATTGTCAAGAGGGATAAACCGAAAAAAATGAATCGAAGAAGCAATTGCTTT
DNA 2: AAAGCAATTGCTTCTTCGATTCATTTTTTTCGGTTTATCCCTCTTGACAATTACACATT
B4: Probe-863 (dsDNA)
DNA 1: AAGATATTAGTTTTTAATTTAGTAATATACCCATATGTTTAATATTGATATCGATATTG
DNA 2: CAATATCGATATCAATATTAAACATATGGGTATATTACTAAATTAAAAACTAATATCTT
B5: Probe-1080 (neighbour element -1086 replaced with A) (dsDNA)
DNA 1: CTTCTAGGAAAAAACAATTCTTGAAAAAATCGCGGAAAGATCTTGATAACATTGTGACT
DNA 2: AGTCACAATGTTATCAAGATCTTTCCGCGATTTTTTCAAGAATTGTTTTTTCCTAGAAG
B6: Probe-1007 (dsDNA)
DNA 1: CATAAGGTATTCTTTTACACTAATACTTTCCCGACAACAACAACGAAAAACTCCAACCT
DNA 2: AGGTTGGAGTTTTTCGTTGTTGTTGTCGGGAAAGTATTAGTGTAAAAGAATACCTTATG
B7: Probe-1086 (neighbour element -1080 replaced with A) (dsDNA)
DNA 1: CTTCTAGGAAAAAACAATTCTTGATACGGTAAAAAAAAGATCTTGATAACATTGTGACT
DNA 2: AGTCACAATGTTATCAAGATCTTTTTTTTACCGTATCAAGAATTGTTTTTTCCTAGAAG
B8: Probe-473 (dsDNA)
DNA 1: TTATGTGTATGTTGTTATCTACAATATGTCCGTTTCAATCAGTCGAACAAAAAATACTA
DNA 2: TAGTATTTTTTGTTCGACTGATTGAAACGGACATATTGTAGATAACAACATACACATAA

target: T1, His-MYB88; assay: EMSA; 1x binding buffer (LightShift kit), 2.5% glycerol, 50 mM KCl, 5 mM MgCl2, 0.05% NP-40, 10 mM EDTA, room temperature, 20 min; pH not stated

| Binder | binding result |
| --- | --- |
| B1 | binds |
| B2 | binds |
| B3 | binds |

target: T2, His-FLP (FOUR LIPS, MYB124); assay: as above

| Binder | binding result |
| --- | --- |
| B4 | no binding |
| B5 | binds |
| B6 | no binding |
| B7 | binds |
| B8 | no binding |
| B1 | binds |
| B2 | binds |
| B3 | binds |
